Key:
[1] = target: T1, KIR3DL2 recombinant protein (R&D Systems) (human, UniProt P43630 28-340); experiment: SCK kinetic method
T1 construct: Bought protein; also called rec KIR3DL2; recombinant KIR3DL2-Fc fusion protein; not shown: Fc part of the bought fusion protein; not described

[2] = target: T2, KIR2DS1 on transfected BWZ cells (UniProt Q14954 22-304, limits assumed); experiment: flow cytometry on transfected BWZ cells
T2 construct: whole, on cells; also called BWZ-KIR2DS1

[3] = target: T3, KIR2DS2 on transfected BWZ cells (UniProt P43631 22-304, limits assumed); experiment: flow cytometry on transfected BWZ cells
T3 construct: whole, on cells
T3 sequence (P43631 22-304 limits assumed): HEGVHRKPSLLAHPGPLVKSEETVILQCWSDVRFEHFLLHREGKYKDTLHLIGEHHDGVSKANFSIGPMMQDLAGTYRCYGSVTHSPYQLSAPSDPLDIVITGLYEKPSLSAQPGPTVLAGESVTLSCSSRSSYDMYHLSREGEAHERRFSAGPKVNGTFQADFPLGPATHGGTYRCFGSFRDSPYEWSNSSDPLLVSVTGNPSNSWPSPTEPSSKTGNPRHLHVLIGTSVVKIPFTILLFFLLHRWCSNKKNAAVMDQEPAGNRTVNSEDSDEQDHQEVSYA

[4] = target: T4, KIR2DL3 on transfected BWZ cells (UniProt P43628 22-341, limits assumed); experiment: flow cytometry on transfected BWZ cells
T4 construct: whole, on cells
T4 sequence (P43628 22-341 limits assumed): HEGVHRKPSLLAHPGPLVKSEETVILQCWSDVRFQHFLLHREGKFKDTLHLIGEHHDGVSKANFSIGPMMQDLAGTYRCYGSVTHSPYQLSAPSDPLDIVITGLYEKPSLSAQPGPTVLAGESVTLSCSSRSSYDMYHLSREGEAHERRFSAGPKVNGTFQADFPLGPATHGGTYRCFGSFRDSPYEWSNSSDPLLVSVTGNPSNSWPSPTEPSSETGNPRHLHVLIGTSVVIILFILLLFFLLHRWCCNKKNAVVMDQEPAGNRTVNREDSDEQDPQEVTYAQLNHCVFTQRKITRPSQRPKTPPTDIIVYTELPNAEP

[5] = target: T5, KIR2DL1 on transfected BWZ cells (UniProt P43626 22-348, limits assumed); experiment: flow cytometry on transfected BWZ cells
T5 construct: whole, on cells
T5 sequence (P43626 22-348 limits assumed): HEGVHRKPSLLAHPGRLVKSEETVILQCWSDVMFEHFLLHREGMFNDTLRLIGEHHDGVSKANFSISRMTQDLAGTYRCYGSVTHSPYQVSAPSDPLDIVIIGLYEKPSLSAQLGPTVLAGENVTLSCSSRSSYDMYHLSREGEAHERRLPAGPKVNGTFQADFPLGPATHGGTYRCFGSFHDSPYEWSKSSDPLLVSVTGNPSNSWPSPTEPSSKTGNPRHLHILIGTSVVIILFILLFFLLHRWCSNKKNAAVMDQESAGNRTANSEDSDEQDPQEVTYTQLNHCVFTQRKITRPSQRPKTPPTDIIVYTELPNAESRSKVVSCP

[6] = target: T6, KIR2DS4 on transfected BWZ cells (UniProt P43632 22-304, limits assumed); experiment: flow cytometry on transfected BWZ cells
T6 construct: whole, on cells
T6 sequence (P43632 22-304 limits assumed): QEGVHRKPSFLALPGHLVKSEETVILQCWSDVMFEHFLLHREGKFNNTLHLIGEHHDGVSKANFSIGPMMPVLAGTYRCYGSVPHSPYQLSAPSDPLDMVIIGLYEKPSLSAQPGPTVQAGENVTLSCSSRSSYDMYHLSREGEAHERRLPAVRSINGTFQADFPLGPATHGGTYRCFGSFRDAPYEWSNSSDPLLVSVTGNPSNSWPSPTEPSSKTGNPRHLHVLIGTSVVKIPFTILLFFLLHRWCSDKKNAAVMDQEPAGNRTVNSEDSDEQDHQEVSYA

[7] = target: T7, KIR3DL1 expressed on cells (human, UniProt P43629 22-444); experiment: flow cytometry on HEK KIR3DL1 cells (row HEK-KIR3DL1)
T7 construct: also called HEK-293T/KIR3DL1
T7 sequence (P43629 22-444 limits assumed): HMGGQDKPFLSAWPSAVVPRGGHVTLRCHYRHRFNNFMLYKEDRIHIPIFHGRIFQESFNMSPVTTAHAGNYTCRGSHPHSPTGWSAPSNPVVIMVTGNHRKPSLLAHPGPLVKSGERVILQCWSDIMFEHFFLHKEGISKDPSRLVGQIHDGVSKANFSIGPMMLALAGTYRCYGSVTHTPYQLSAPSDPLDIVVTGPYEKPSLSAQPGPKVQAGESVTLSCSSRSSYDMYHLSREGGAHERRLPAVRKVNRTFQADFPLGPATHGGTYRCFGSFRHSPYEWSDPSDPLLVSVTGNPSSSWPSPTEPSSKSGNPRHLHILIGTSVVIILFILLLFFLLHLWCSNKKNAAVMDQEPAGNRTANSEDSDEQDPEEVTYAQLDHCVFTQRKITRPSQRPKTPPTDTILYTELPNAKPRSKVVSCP

[8] = target: T1, KIR3DL2 recombinant protein (R&D …); experiment: SPR (Biacore T100), antibody injected over immobilised recombinant KIR3DL2, bivalent affinity, pH 7.2
[9] = target: T8, KIR3DL2 mutant M7 (L113V;T118R) (human, UniProt P43630 22-455); experiment: flow cytometry on HEK-293T cells transfected with the mutant; + no significant loss of binding, ± decrease
T8 construct: Expressed on transfected HEK-293T cells; also called Number 7
T8 sequence (P43630 22-455 L134V/T139R): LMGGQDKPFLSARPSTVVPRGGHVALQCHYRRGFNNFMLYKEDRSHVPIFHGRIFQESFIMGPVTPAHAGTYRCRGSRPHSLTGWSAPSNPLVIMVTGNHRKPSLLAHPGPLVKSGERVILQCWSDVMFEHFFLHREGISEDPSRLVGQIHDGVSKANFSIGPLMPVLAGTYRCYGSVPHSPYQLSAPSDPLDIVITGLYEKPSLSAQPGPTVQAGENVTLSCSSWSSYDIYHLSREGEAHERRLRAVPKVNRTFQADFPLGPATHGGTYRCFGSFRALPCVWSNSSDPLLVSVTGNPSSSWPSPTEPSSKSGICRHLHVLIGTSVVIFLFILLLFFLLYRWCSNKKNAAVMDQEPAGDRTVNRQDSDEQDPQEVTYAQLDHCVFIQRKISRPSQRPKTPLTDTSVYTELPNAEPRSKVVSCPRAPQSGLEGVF

[10] = target: T9, KIR3DL2 mutant M9 (L164M;P166L;V167A) (human, UniProt P43630 22-455); experiment: as above
T9 construct: Expressed on transfected HEK-293T cells; also called Number 9
T9 sequence (P43630 22-455 L185M/P187L/V188A): as the sequence (P43630 22-455 L134V/T139R) above, with V113L, R118T, L164M, P166L, V167A counted along it

[11] = target: T10, KIR3DL2 mutant M10 (R136K;E141K) (human, UniProt P43630 22-455); experiment: as above
T10 construct: Expressed on transfected HEK-293T cells; also called Number 10
T10 sequence (P43630 22-455 R157K/E162K): as the sequence (P43630 22-455 L134V/T139R) above, with V113L, R118T, R136K, E141K counted along it

[12] = target: T11, KIR3DL2 mutant M11 (P179T;S181T) (human, UniProt P43630 22-455); experiment: as above
T11 construct: Expressed on transfected HEK-293T cells; also called Number 11; mutant 11
T11 sequence (P43630 22-455 P200T/S202T): as the sequence (P43630 22-455 L134V/T139R) above, with V113L, R118T, P179T, S181T counted along it

[13] = target: T12, KIR3DL2 mutant M11A1 (V178A;H180S) (human, UniProt P43630 22-455); experiment: as above
T12 construct: Expressed on transfected HEK-293T cells; also called Number 24 (11A1); mutant 11A1
T12 sequence (P43630 22-455 V199A/H201S): as the sequence (P43630 22-455 L134V/T139R) above, with V113L, R118T, V178A, H180S counted along it

[14] = target: T13, KIR3DL2 mutant M11A3 (N99S;H100S;Q184A) (human, UniProt P43630 22-455); experiment: as above
T13 construct: Expressed on transfected HEK-293T cells; also called Number 26 (11A3)
T13 sequence (P43630 22-455 N120S/H121S/Q205A): as the sequence (P43630 22-455 L134V/T139R) above, with N99S, H100S, V113L, R118T, Q184A counted along it

[15] = target: T14, KIR3DL2 mutant M11A5 (V147A;Q149S) (human, UniProt P43630 22-455); experiment: as above
T14 construct: Expressed on transfected HEK-293T cells; also called Number 28 (11A5)
T14 sequence (P43630 22-455 V168A/Q170S): as the sequence (P43630 22-455 L134V/T139R) above, with V113L, R118T, V147A, Q149S counted along it

[16] = target: T15, KIR3DL2 mutant M8 + 11 (V127I;P179T;S181T) (human, UniProt P43630 22-455); experiment: as above
T15 construct: Expressed on transfected HEK-293T cells; also called Number 23 (8 + 11)
T15 sequence (P43630 22-455 V148I/P200T/S202T): as the sequence (P43630 22-455 L134V/T139R) above, with V113L, R118T, V127I, P179T, S181T counted along it

[17] = target: T16, KIR3DL2 mutant M11A4 (E130S;H131S;R145S) (human, UniProt P43630 22-455); experiment: flow cytometry on HEK-293T cells transfected with the mutant; - means substantially complete loss of binding
T16 construct: Expressed on transfected HEK-293T cells; also called Number 27 (11A4)
T16 sequence (P43630 22-455 E151S/H152S/R166S): as the sequence (P43630 22-455 L134V/T139R) above, with V113L, R118T, E130S, H131S, R145S counted along it

[18] = target: T17, KIR3DL2 mutant M11A6 (I150A;M128A) (human, UniProt P43630 22-455); experiment: as above
T17 construct: Expressed on transfected HEK-293T cells; also called Number 29 (11A6)
T17 sequence (P43630 22-455 M149A/I171A): as the sequence (P43630 22-455 L134V/T139R) above, with V113L, R118T, M128A, I150A counted along it

[19] = target: T18, KIR3DL2 at the surface of HUT78 Sezary Syndrome cell line (human, UniProt P43630 22-455); experiment: flow cytometry competition on HUT78 cells; naked antibody titrated against 15C11-PE (5 µg/ml)
T18 construct: whole, on cells; Two alleles are expressed
T18 sequence (P43630 22-455): as the sequence (P43630 22-455 L134V/T139R) above, with V113L, R118T counted along it

[20] = target: T19, NK cells, including normal KIR3DL2+ NK cells (Homo sapiens, UniProt P43630); experiment: flow cytometry of whole blood of a Sezary Syndrome patient, antibody + GaM-PE against CD4; lower gate (CD4-negative NK cells)
T19 construct: full-length receptor on the cell surface; also called gate NK GaM PE+; KIR3DL2 on CD4-negative NK cells in the blood of the Sezary Syndrome patient
T19 sequence (P43630 22-455 limits assumed): as the sequence (P43630 22-455 L134V/T139R) above, with V113L, R118T counted along it

[21] = target: T20, KIR3DL2 on fresh Sezary Syndrome cells of patients (human, UniProt P43630 22-455); experiment: flow cytometry of whole blood of a Sezary Syndrome patient, antibody + GaM-PE against CD4; upper gate (CD4+ KIR3DL2+ leukemic Sezary cells)
T20 construct: whole, on cells; also called SS cells
T20 sequence (P43630 22-455): as the sequence (P43630 22-455 L134V/T139R) above, with V113L, R118T counted along it

T1 sequence (P43630 28-340 A108T): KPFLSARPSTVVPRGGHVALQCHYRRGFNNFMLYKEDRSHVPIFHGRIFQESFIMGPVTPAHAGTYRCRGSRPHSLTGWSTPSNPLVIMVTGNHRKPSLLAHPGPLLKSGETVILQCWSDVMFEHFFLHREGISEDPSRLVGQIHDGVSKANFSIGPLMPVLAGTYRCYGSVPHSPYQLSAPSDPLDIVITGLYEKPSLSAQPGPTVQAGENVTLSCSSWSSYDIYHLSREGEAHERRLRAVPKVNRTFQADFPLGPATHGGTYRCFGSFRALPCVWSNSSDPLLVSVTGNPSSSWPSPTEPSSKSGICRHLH
T2 sequence (Q14954 22-304 limits assumed): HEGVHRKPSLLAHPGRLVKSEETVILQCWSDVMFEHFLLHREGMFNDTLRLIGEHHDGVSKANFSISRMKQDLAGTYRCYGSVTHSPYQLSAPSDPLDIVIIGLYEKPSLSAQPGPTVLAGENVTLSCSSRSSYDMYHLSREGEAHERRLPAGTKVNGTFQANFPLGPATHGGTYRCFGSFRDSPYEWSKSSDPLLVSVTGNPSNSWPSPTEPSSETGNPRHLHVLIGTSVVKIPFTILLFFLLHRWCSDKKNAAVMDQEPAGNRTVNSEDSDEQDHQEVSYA

B1: antibody 15C11 (antibody, mouse IgG2a, V domains shown)
VH: EVKLEESGGGLVQPGGSMKLSCAASGFTFSDAWMDWVRQSPEKGLEWVAEIRSKANNHATYYAESVKGRFTISRDDSKSSVYLRMNSLRAEDTGIYYCTGGYYPVYWGQGTLVTVSA
VL: DIQMTQSPSSLSASLGGKVTITCKASQDINKNIAWYQHKPGKGPRLLIHYTSTLQPGFPSRFSGSGSGRDYSFSISNLEPEDLATYYCLQYDNLLTFGGGTKLEIK
notes: also called M-K32-15C11; 15C11-PE (PE-labelled form)
Kd [1]: 0.37 nM | koff [1]: 0.00011 s⁻¹ | binding result [2]: no binding (tested: 10 µg/ml) | binding result [3]: no binding (tested: 10 µg/ml) | binding result [4]: no binding (tested: 10 µg/ml) | binding result [5]: no binding (tested: 10 µg/ml) | binding result [6]: no binding (tested: 10 µg/ml) | binding result [7]: no binding | Kd [8]: 0.78 nM | binding result [9]: binds | binding result [10]: binds | binding result [11]: binds | binding result [12]: binds | binding result [13]: binds | binding result [14]: binds | binding result [15]: binds | binding result [16]: binds | binding result [17]: no binding | binding result [18]: no binding | IC50 (read off the curve) [19]: ~0.4 µg/mL | % of cells in gate NK GaM PE+ [20]: 12.7% | % of cells in gate CD4 GaM PE+ [21]: 7.6%
